According to publication PMC12802151:

What was measured:
[1] = molecular target: J paramyxovirus receptor-binding protein, β-propeller head domain with extended C-terminus (JPV-RBPβ+) (J paramyxovirus (JPV)); assay: crystal structure; JPV-RBPβ+ at 3.5 mg/mL, sitting-drop vapor diffusion at room temperature, 0.1 M tris/bicine pH 8.5, 0.2 M ammonium sulfate, Morpheus precipitant mix 4; 2.2 Å; a dimer in the asymmetric unit
[2] = molecular target: Beilong paramyxovirus (HMC isolate) receptor-binding protein, β-propeller head domain with C-terminal extension (BeiV(HMC)-RBPβ+) (Beilong paramyxovirus (BeiV), isolate from human mesangial cells (HMC)); assay: crystal structure; BeiV(HMC)-RBPβ+ at 3.2 mg/mL, sitting-drop vapor diffusion at room temperature, 0.2 M potassium thiocyanate, 0.1 M sodium cacodylate pH 6.5, 8% poly-γ-glutamic acid polymer; 3.5 Å; a dimer in the asymmetric unit

Substance	stoichiometry N [1]	stoichiometry N [2]
J paramyxovirus receptor-binding protein, β-propeller head domain with extended C-terminus (JPV-RBPβ+) (domain or fragment)	2	
Beilong paramyxovirus (HMC isolate) receptor-binding protein, β-propeller head domain with C-terminal extension (BeiV(HMC)-RBPβ+) (domain or fragment)		2
